# Reference: publication PMC2783852 (Archives of biochemistry and biophysics, 2009)
# B1: recombinant human apomanganese superoxide dismutase (enzyme, UniProt P04179 25-222, looked up)
# chain: KHSLPDLPYDYGALEPHINAQIMQLHHSKHHAAYVNNLNVTEEKYQEALAKGDVTAQIALQPALKFNGGGHINHSIFWTNLSPNGGGEPKGELLEAIKRDFGSFDKFKEKLTAASVGVQGSGWGWLGFNKERGHLQIAACPNQDPLQGTTGLIPLLGIDVWEHAYYLQYKNVRPDYLKAIWNVINWENVTERYMACKK
# Molecular target: the molecule itself
# Assay: SEC
protein,measurement,value
B1,stoichiometry N,4
